Drawing on publication PMC7483473, this text covers fraction by stepwise photobleaching (dimer fraction, as the sentence seems to mean) for 1 molecule.

In the experiment the target is mNeonGreen labeled metabotropic glutamate receptor 3, Q14832. Put plainly: stepwise photobleaching (subunit counting) of single complexes by TIRF; SPReAD: expressing cells co-plated with VSVG-U2OS cells (typically 10:1), fused at pH 5.5, syncytia fixed with 4% paraformaldehyde, room temperature; mGluR lines were HEK293T fused with U2OS. Particulars: remark: other sources report otherwise.

B1: mNeonGreen labeled metabotropic glutamate receptor 3, Q14832 23-879 (receptor)
chain: LGDHNFLRREIKIEGDLVLGGLFPINEKGTGTEECGRINEDRGIQRLEAMLFAIDEINKDDYLLPGVKLGVHILDTCSRDTYALEQSLEFVRASLTKVDEAEYMCPDGSYAIQENIPLLIAGVIGGSYSSVSIQVANLLRLFQIPQISYASTSAKLSDKSRYDYFARTVPPDFYQAKAMAEILRFFNWTYVSTVASEGDYGETGIEAFEQEARLRNICIATAEKVGRSNIRKSYDSVIRELLQKPNARVVVLFMRSDDSRELIAAASRANASFTWVASDGWGAQESIIKGSEHVAYGAITLELASQPVRQFDRYFQSLNPYNNHRNPWFRDFWEQKFQCSLQNKRNHRRVCDKHLAIDSSNYEQESKIMFVVNAVYAMAHALHKMQRTLCPNTTKLCDAMKILDGKKLYKDYLLKINFTAPFNPNKDADSIVKFDTFGDGMGRYNVFNFQNVGGKYSYLKVGHWAETLSLDVNSIHWSRNSVPTSQCSDPCAPNEMKNMQPGDVCCWICIPCEPYEYLADEFTCMDCGSGQWPTADLTGCYDLPEDYIRWEDAWAIGPVTIACLGFMCTCMVVTVFIKHNNTPLVKASGRELCYILLFGVGLSYCMTFFFIAKPSPVICALRRLGLGSSFAICYSALLTKTNCIARIFDGVKNGAQRPKFISPSSQVFICLGLILVQIVMVSVWLILEAPGTRRYTLAEKRETVILKCNVKDSSMLISLTYDVILVILCTVYAFKTRKCPENFNEAKFIGFTMYTTCIIWLAFLPIFYVTSSDYRVQTTTMCISVSLSGFVVLGCLFAPKVHIILFQPQKNVVTHRLHLNRFSVSGTGTTYSQSSASTYVPTVCNGREVLDSTTSSL
Regarding B1, the fraction by stepwise photobleaching (dimer fraction, as the sentence seems to mean) came out at 33.5%.
